Each block holds one substance with its values, some of them ahead of it.
Experiments:
[1] = molecular target: full-length beta-catenin (Uniprot ID P35222) (human); test: competition fluorescence polarization
[2] = molecular target: beta-catenin fused to HaloTag (Bcat-Halo NanoBRET construct), expressed in HEK293 cells (UniProt P35222); test: NanoBRET Abs IC50 in HEK293 cells, beta-catenin-HaloTag against TCF4-NanoLuc
[3] = molecular target: full-length B-Catenin (Uniprot ID P35222) (human); test: competition fluorescence polarization, displacement of 5FAM-TCF4
[4] = molecular target: full-length B-Catenin (Uniprot ID P35222) (human); test: competition fluorescence polarization
[5] = molecular target: beta-catenin in DLD1 TCF reporter cells (UniProt P35222); test: cell-based or functional assay
[6] = molecular target: beta-catenin fused to HaloTag (NanoBRET acceptor construct), expressed in HEK293 cells (UniProt P35222); test: NanoBRET in HEK293 cells, beta-catenin-HaloTag against TCF4-NanoLuc
[7] = molecular target: endogenous beta-catenin in cells (DLD1, HAP1 WT) (human); test: cell-based or functional assay
Sequence of endogenous beta-catenin in cells (DLD1, HAP1 WT) (human) (P35222 2-781): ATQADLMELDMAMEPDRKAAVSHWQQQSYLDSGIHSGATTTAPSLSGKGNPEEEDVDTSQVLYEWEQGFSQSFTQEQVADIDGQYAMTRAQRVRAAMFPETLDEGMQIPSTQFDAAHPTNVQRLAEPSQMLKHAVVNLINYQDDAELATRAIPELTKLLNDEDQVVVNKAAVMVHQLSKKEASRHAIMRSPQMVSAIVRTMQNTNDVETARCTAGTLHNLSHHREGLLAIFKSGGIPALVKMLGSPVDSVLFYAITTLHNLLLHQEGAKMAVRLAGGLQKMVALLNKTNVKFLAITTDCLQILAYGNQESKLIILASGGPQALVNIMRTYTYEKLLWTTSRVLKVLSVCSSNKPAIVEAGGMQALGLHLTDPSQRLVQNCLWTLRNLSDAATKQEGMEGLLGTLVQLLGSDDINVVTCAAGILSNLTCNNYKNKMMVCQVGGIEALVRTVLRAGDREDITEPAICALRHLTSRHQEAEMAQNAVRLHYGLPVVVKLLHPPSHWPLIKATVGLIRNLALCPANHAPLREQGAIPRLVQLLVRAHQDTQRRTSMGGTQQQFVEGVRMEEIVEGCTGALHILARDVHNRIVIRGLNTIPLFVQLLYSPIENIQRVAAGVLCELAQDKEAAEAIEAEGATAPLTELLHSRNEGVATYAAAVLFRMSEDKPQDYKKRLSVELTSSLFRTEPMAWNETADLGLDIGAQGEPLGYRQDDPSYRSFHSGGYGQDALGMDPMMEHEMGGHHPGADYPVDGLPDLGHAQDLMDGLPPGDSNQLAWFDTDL

Sequence of beta-catenin fused to HaloTag (Bcat-Halo NanoBRET construct), expressed in HEK293 cells (P35222 whole entry, the tested form may be a part): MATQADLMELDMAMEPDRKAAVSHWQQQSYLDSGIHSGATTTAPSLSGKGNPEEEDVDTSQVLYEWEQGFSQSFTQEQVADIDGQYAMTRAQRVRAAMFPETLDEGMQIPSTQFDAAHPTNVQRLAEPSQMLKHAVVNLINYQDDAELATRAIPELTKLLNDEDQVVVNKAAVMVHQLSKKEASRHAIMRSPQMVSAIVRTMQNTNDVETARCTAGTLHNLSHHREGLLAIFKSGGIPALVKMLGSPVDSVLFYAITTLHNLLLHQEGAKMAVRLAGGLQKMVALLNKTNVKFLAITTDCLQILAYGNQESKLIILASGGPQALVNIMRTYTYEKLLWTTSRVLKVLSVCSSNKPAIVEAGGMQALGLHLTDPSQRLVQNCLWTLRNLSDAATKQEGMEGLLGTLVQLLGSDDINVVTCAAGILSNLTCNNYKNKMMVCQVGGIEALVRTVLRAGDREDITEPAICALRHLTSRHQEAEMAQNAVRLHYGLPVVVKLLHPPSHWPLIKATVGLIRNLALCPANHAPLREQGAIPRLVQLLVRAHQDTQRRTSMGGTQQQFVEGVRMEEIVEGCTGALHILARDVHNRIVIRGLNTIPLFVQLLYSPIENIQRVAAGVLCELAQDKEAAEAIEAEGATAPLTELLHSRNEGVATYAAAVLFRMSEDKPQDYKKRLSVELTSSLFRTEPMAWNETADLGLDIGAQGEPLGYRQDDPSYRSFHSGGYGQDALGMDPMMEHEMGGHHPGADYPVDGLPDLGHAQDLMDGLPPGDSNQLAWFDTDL
Sequence of beta-catenin in DLD1 TCF reporter cells (P35222 2-781 limits assumed): as the sequence (P35222 2-781) above
Sequence of full-length B-Catenin (Uniprot ID P35222) (human) (P35222 whole entry): as the sequence (P35222 whole entry, the tested form may be a part) above
Sequence of beta-catenin fused to HaloTag (NanoBRET acceptor construct), expressed in HEK293 cells (P35222 whole entry, the tested form may be a part): as above

Substance: Ac-PL3-Asp-Npg-B5-Asp-4F3Me3COOHF-Aib-Ala-Phe-Lys*3-PyrS2-2F3MeF-BztA-GlnR*3-Ala-NH2 (peptide)
- IC50 [2]: < 3000 nM

Substance: Ac-PL3-Asp-Npg-B5-Asp-dGlu-Aib-Ala-Phe-Lys*3-PyrS2-2F3MeF-BztA-GlnR*3-Ala-NH2 (peptide)
- IC50 [3]: < 50 nM

Substance: Ac-PL3-Asp-Npg-B5-Asp-aThr-Aib-Ala-Phe-Lys*3-PyrS2-2F3MeF-BztA-GlnR*3-Ala-NH2 (peptide)
- IC50 [2]: > 3000 nM

Substance: 4PyPrpc-PL3-Asp-Npg-B5-Asp-3COOHF-Aib-Ala-Phe-Lys*3-PyrS2-3Thi-BztA-GlnR*3-Ala-NH2 (I-1071) (peptide)
- IC50 [4]: < 50 nM

Substance: Ac-PL3-Asp-Npg-B5-Asp-Asn-Aib-Ala-Phe-Lys*3-PyrS2-2F3MeF-BztA-GlnR*3-Ala-NH2 (peptide)
- IC50 [2]: > 3000 nM

Substance: C-1: Ac-PL3-Asp-Npg-B5-Asp-3COOHF-Ala-Ala-Phe-Leu-PyrS2-2F3MeF-BztA-Gln-NH2 (peptide)
- beta-catenin TCF4 DLD1 cell reporter assay IC50 [5]: 9.8 µM

Substance: 5PymAc-PL3-Asp-Npg-B5-Asp-3COOHF-Aib-Ala-Phe-Lys*3-PyrS2-3Thi-BztA-GlnR*3-Ala-NH2 (peptide)
- IC50 [4]: < 50 nM

Substance: I-566: Ac-PL3-Asp-Npg-B5-Asp-3COOHF-Aib-Ala-Phe-[2_6-naph]Cys-PyrS2-3Thi-BztA-Cys-Ala-NH2 (peptide)
- IC50 [1]: 58 nM
- beta-catenin TCF4 DLD1 cell reporter assay IC50 [5]: > 20 µM

Substance: I-567: Ac-PL3-Asp-Npg-B5-Asp-3COOHF-Aib-Ala-Phe-[3_3-biph]Cys-PyrS2-3Thi-BztA-Cys-Ala-NH2 (peptide)
- IC50 [1]: 120 nM
- beta-catenin TCF4 DLD1 cell reporter assay IC50 [5]: > 20 µM

Substance: Ac-PL3-Asp-Npg-B5-Asp-2COOHF-Aib-Ala-Phe-Lys*3-PyrS2-2F3MeF-BztA-GlnR*3-Ala-NH2 (peptide)
- IC50 [2]: < 3000 nM

Substance: 4PyPrpc-PL3-Asp-Npg-B5-Asp-3COOHF-Aib-Ala-Phe-Lys*3-PyrS2-3Thi-BztA-GlnR*3-Ala-NH2 (I-1070) (peptide)
- IC50 [4]: < 50 nM

Substance: 123TriAc-PL3-Asp-Npg-B5-Asp-3COOHF-Aib-Ala-Phe-Lys*3-PyrS2-3Thi-BztA-GlnR*3-Ala-NH2 (peptide)
- IC50 [4]: < 50 nM

Substance: 3PyPrpc-PL3-Asp-Npg-B5-Asp-3COOHF-Aib-Ala-Phe-Lys*3-PyrS2-3Thi-BztA-GlnR*3-Ala-NH2 (peptide)
- IC50 [4]: < 50 nM

Substance: Ac-PL3-Asp-Npg-B5-Asp-5F3Me2COOHF-Aib-Ala-Phe-Lys*3-PyrS2-2F3MeF-BztA-GlnR*3-Ala-NH2 (peptide)
- IC50 [2]: > 3000 nM

Substance: Ac-PL3-Asp-Npg-B5-Asp-3F2COOHF-Aib-Ala-Phe-Lys*3-PyrS2-2F3MeF-BztA-GlnR*3-Ala-NH2 (peptide)
- IC50 [2]: > 3000 nM

The next lines start with the values.

- IC50 [1]: 93 nM
Substance: I-377: Ac-PL3-Asp-Npg-B5-Asp-3COOHF-Aib-Ala-Phe-[pXyl]Cys-PyrS2-2F3MeF-BztA-Cys-Ala-NH2 (peptide)

- IC50 [2]: > 3000 nM
Substance: Ac-PL3-Asp-Npg-B5-Asp-4F3Me2COOHF-Aib-Ala-Phe-Lys*3-PyrS2-2F3MeF-BztA-GlnR*3-Ala-NH2 (peptide)

- IC50 [2]: > 3000 nM
Substance: Ac-PL3-Asp-Npg-B5-Asp-Asp-Aib-Ala-Phe-Lys*3-PyrS2-2F3MeF-BztA-GlnR*3-Ala-NH2 (peptide)

- IC50 [2]: > 3000 nM
Substance: Ac-PL3-Asp-Npg-B5-Asp-Gln-Aib-Ala-Phe-Lys*3-PyrS2-2F3MeF-BztA-GlnR*3-Ala-NH2 (peptide)

- IC50 [3]: < 50 nM
Substance: Ac-PL3-Asp-Npg-B5-Asp-5F3Me3COOHF-Aib-Ala-Phe-Lys*3-PyrS2-2F3MeF-BztA-GlnR*3-Ala-NH2 (peptide)

- IC50 [2]: > 3000 nM
Substance: Ac-PL3-Asp-Npg-B5-Asp-Ser-Aib-Ala-Phe-Lys*3-PyrS2-2F3MeF-BztA-GlnR*3-Ala-NH2 (peptide)

- IC50 [2]: > 3000 nM
Substance: Ac-PL3-Asp-Npg-B5-Asp-Glu-Aib-Ala-Phe-Lys*3-PyrS2-2F3MeF-BztA-GlnR*3-Ala-NH2 (peptide)

- IC50 [2]: > 3000 nM
Substance: Ac-PL3-Asp-Npg-B5-Asp-Ala-Aib-Ala-Phe-Lys*3-PyrS2-2F3MeF-BztA-GlnR*3-Ala-NH2 (peptide)

- IC50 [4]: < 50 nM
Substance: 1Pyrazole Ac-PL3-Asp-Npg-B5-Asp-3COOHF-Aib-Ala-Phe-Lys*3-PyrS2-3Thi-BztA-GlnR*3-Ala-NH2 (peptide)

- IC50 [1]: 220 nM
Substance: I-376: Ac-PL3-Asp-Npg-B5-Asp-3COOHF-Aib-Ala-Phe-[oXyl]Cys-PyrS2-2F3MeF-BztA-Cys-Ala-NH2 (peptide)

- IC50 [4]: < 50 nM
Substance: 3Py Ac-PL3-Asp-Npg-B5-Asp-3COOHF-Aib-Ala-Phe-Lys*3-PyrS2-3Thi-BztA-GlnR*3-Ala-NH2 (peptide)

- IC50 [4]: < 50 nM
Substance: 1PydoneAc-PL3-Asp-Npg-B5-Asp-3COOHF-Aib-Ala-Phe-Lys*3-PyrS2-3Thi-BztA-GlnR*3-Ala-NH2 (peptide)

- IC50 [6]: 3000 nM
- AXIN2 expression in DLD1 cells, IC50 [7]: 9.3 µM
- SP5 expression in DLD1 cells, IC50 [7]: 9 µM
Substance: Peptide A
